This test deals with T1, His-LCK (human, UniProt P06239 1-509).
T1 construct: Lymphocyte-specific protein tyrosine kinase (LCK), human, full length; Cloned into pET-32a (BamHI/XhoI); also called Recombinant His-tagged LCK
In words: pull-down; MBP fusion proteins bound to amylose resin, His-LCK incubated with 50 μL beads in 20 mM HEPES pH 7.4, 0.5% NP-40, 100 mM NaCl for 2 h at 4 °C; eluted with 10 mM maltose; immunoblot with anti-His-Tag and anti-MBP. The settings on record: both partners purified. For orientation: A western blot detects proteins with antibodies after separation by electrophoresis.

T1 sequence (P06239 whole entry): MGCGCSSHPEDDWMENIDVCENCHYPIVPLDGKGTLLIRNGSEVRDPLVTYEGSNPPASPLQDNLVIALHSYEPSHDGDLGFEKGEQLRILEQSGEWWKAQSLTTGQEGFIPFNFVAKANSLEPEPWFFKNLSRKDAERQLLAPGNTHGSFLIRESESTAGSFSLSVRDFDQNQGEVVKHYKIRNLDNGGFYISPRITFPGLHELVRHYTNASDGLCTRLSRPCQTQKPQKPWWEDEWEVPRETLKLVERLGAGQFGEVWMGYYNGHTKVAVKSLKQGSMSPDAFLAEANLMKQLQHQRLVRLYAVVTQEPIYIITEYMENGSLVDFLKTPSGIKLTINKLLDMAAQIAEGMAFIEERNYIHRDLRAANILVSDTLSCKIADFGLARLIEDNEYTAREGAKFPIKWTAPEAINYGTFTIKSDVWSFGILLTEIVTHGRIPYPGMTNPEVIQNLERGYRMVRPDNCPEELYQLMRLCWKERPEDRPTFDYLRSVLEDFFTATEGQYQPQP

B1: MBP-FOXP3 ΔFKH (domain or fragment, human, UniProt Q9BZS1 1-332, looked up)
chain: MPNPRPGKPSAPSLALGPSPGASPSWRAAPKASDLLGARGPGGTFQGRDLRGGAHASSSSLNPMPPSQLQLPTLPLVMVAPSGARLGPLPHLQALLQDRPHFMHQLSTVDAHARTPVLQVHPLESPAMISLTPPTTATGVFSLKARPGLPPGINVASLEWVSREPALLCTFPNPSAPRKDSTLSAVPQSSYPLLANGVCKWPGCEKVFEEPEDFLKHCQADHLLDEKGRAQCLLQREMVQSLEQQLVLEKEKLSAMQAHLAGKMALTKASSVASSDKGSCCIVAAGSQGPVVPAWSGPREAPDSLFAVRRHLWGSHGNSTFPEFLHNMDYFK
notes: Forkhead box P3 (FOXP3), human, fragment with a truncated forkhead domain, amino acids 1-332; Cloned into pMAL-c2; this vector is known to place MBP at the N-terminus (surmised)
As for B1, the binding result is listed as “binds”.

B2: MBP-FOXP3-Full (natural protein, human, UniProt Q9BZS1 1-431, looked up)
chain: MPNPRPGKPSAPSLALGPSPGASPSWRAAPKASDLLGARGPGGTFQGRDLRGGAHASSSSLNPMPPSQLQLPTLPLVMVAPSGARLGPLPHLQALLQDRPHFMHQLSTVDAHARTPVLQVHPLESPAMISLTPPTTATGVFSLKARPGLPPGINVASLEWVSREPALLCTFPNPSAPRKDSTLSAVPQSSYPLLANGVCKWPGCEKVFEEPEDFLKHCQADHLLDEKGRAQCLLQREMVQSLEQQLVLEKEKLSAMQAHLAGKMALTKASSVASSDKGSCCIVAAGSQGPVVPAWSGPREAPDSLFAVRRHLWGSHGNSTFPEFLHNMDYFKFHNMRPPFTYATLIRWAILEAPEKQRTLNEIYHWFTRMFAFFRNHPATWKNAIRHNLSLHKCFVRVESEKGAVWTVDELEFRKKRSQRPSRCSNPTPGP
notes: Forkhead box P3 (FOXP3), human, full length, amino acids 1-431; Cloned into pMAL-c2 (BamHI/SalI); also called MBP-FOXP3 WT
On to B2, for which the binding result was “binds”.

Values taken from PMC3796550, “Phosphorylation of FOXP3 by LCK Downregulates MMP9 Expression and Represses Cell Invasion” (PLoS ONE, 2013).
